Ends that are not written are not given here. * marks the point of attachment. Fmoc = O=C(OCC1c2ccccc2-c2ccccc21)*

This series deals with the molecule itself. Kind of series: FTIR + circular dichroism + transmission electron microscopy; peptide alone; gelation by pH switch, 20 mg/mL stock; self-assembly under physiological conditions (pH 7.4) into nanofibrils and a hydrogel.

B1: Fmoc-DDIKVAV self-assembling peptide (peptide)
peptide: Fmoc-DDIKVAV
notes: Whole peptide as printed: DDIKVAV with N-terminal Fmoc; Assembles into nanofibres and a hydrogel; also called SAP; IKVAV SAP; source: solid phase peptide synthesis
In the case of B1, the binding result is listed as “binds”.

For the origin of these results see article PMC9101815, “Extracellular Matrix Biomimetic Hydrogels, Encapsulated with Stromal Cell-Derived Factor 1, Improve the Composition of Foetal Tissue Grafts in a Rodent Model of Parkinson’s Disease” (International Journal of Molecular Sciences, 2022).
